The results in this text go back to PMC10790385, “Intracellular delivery of Parkin-RING0-based fragments corrects Parkin-induced mitochondrial dysfunction through interaction with SLP-2” (Journal of Translational Medicine, 2024).

Assay [1] has as its target T1, recombinant full-length human Parkin protein (aa 1-465) (human, UniProt O60260 1-465).
T1 construct: SUMO cleaved with ULP-1 protease; also called recombinant Parkin; source: E. coli One Shot BL21(DE3)pLysS, purified (IMAC, nondenaturing)
Nature of the assay: far-Western, overlay or dot blot; 2 µg recombinant SLP-2 separated by SDS-PAGE and transferred to a membrane, incubated with 60 µg recombinant Parkin, probed with anti-Parkin antibody. The settings on record: both partners purified.

In assay [2] the target is T2, recombinant human Parkin fragment aa 138-465 (human, UniProt O60260 138-465).
T2 construct: SUMO cleaved with ULP-1 protease; source: E. coli One Shot BL21(DE3)pLysS, purified (IMAC, nondenaturing)
T2 sequence (looked up): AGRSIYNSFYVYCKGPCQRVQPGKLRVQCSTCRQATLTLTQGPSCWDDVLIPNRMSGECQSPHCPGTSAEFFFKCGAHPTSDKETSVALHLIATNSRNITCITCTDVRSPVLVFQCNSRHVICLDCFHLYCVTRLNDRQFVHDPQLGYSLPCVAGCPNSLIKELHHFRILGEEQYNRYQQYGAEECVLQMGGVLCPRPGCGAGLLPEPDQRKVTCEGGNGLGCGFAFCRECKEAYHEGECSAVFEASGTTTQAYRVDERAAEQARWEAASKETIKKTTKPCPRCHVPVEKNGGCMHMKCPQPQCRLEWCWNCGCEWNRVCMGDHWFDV
As to the kind of experiment: far-Western, overlay or dot blot; 2 µg recombinant Parkin proteins (aa 1-465 and aa 138-465) separated by SDS-PAGE and transferred to immobilon membrane, incubated for 6 h with 80 µg recombinant SLP-2, probed with anti-SLP-2 antibody. The note with it: both partners purified.

B1: recombinant human SLP-2 protein (aa 41-356) (domain or fragment, UniProt Q9UJZ1 41-356, looked up)
chain: VPQQEAWVVERMGRFHRILEPGLNILIPVLDRIRYVQSLKEIVINVPEQSAVTLDNVTLQIDGVLYLRIMDPYKASYGVEDPEYAVTQLAQTTMRSELGKLSLDKVFRERESLNASIVDAINQAADCWGIRCLRYEIKDIHVPPRVKESMQMQVEAERRKRATVLESEGTRESAINVAEGKKQAQILASEAEKAEQINQAAGEASAVLAKAKAKAEAIRILAAALTQHNGDAAASLTVAEQYVSAFSKLAKDSNTILLPSNPGDVTSMVAQAMGVYGALTKAPVPGTPDSLSSGSSRDVQGTDASLDEELDRVKMS
notes: Stomatin-like protein 2, human, aa 41-356; SUMO cleaved with ULP-1 protease; also called recombinant SLP-2; source: E. coli One Shot BL21(DE3)pLysS, purified (IMAC, nondenaturing)
In the case of B1, the binding result in assay [1] and in assay [2] was “binds” each time.
